In the experiment the target is actin filaments (actin from Gallus gallus skeletal muscle) (Gallus gallus (chicken), UniProt P68139 1-377). The experiment can be described thus: co-sedimentation; 4 µM EGFP–SFM peptide with 0–200 µM actin filaments in F buffer, 1 h at room temperature, 100,000g for 30 min; pellet read by anti-EGFP western blot; one-site specific binding fit; apparent. The settings on record: both partners purified. (In general: A western blot detects proteins with antibodies after separation by electrophoresis.)

B1: EGFP-tagged ESPNL SFM peptide (peptide)
chain: IQEWGVSVRTLRGNFESASGPLC
modifications: Limits from translated primers P11/P12 (7 residues either side of SFM 652-660). Construct also has an initiator Met before the peptide and a C-terminal linker-EGFP-TEV-His, left out.
With B1, the Kd turned out to be 6 µM.
